For orientation: koff means a measure of how fast the partners let go of each other. Low values mean slow dissociation, high ones fast dissociation.

In article PMC8012516 (2021) one finds koff data, which are given here for 1 molecule.

Test [1] has as its target S-receptor-binding domain (RBD)-Fc of SARS-CoV-2 (SARS-CoV-2, UniProt P0DTC2). Description: SPR. In general terms: In SPR one partner is held on a chip, and binding of the other changes the refractive index at the surface.
Test [2] deals with angiotensin-converting enzyme 2 (UniProt Q9BYF1 18-805). Put plainly: SPR.
angiotensin-converting enzyme 2, sequence (Q9BYF1 18-740): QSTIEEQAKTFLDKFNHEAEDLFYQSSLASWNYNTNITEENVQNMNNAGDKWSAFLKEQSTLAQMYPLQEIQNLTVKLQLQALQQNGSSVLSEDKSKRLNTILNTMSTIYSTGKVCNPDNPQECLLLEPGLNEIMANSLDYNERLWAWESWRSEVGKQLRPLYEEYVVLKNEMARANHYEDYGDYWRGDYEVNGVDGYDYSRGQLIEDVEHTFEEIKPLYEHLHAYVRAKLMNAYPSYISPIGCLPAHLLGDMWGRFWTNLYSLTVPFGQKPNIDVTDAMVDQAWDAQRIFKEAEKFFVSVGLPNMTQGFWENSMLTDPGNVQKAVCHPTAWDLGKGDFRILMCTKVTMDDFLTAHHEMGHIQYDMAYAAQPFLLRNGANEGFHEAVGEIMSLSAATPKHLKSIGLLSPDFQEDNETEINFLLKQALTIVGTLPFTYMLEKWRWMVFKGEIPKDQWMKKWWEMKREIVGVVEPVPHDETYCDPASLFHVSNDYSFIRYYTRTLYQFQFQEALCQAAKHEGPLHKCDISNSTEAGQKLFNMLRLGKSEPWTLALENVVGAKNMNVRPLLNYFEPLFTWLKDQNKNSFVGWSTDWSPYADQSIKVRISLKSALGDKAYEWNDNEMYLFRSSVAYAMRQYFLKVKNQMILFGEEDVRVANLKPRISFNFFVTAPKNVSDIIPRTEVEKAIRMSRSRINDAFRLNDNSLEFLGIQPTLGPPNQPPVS

B1: antibacterial peptide DP7 (peptide)
peptide: VQWRIRVAVIRK
Regarding B1, the koff in test [1] was 0.00501 s⁻¹; in test [2] it was 0.00918 s⁻¹.
